Source: patent US20050124041A1 (YUHAN, published 2005)

Target: T1, recombinant human tumor necrosis factor-α (Biosource PHC3011, Belgium) (human, UniProt P01375 77-233)
T1 construct: Bought recombinant protein; also called hTNFα; hTNF-α
Test: competitive ELISA: TSK11 pre-incubated with soluble hTNFα, then added to hTNFα-coated wells; Scatchard plot analysis (Friguet method)
Description: In vitro binding affinity of TSK11 antibody against hTNFα was determined by ELISA assay. Here, each well was coated with 100 μl of recombinant hTNFα at a concentration of 4 μg/ml. Next, in Micro Tube (AXYGEN, U.S.A.) recombinant hTNFα was diluted with PBS solution supplemented with 0.02% bovine serum albumin to obtain the final concentration ranging from 5×10⁻⁹ M to 1×10⁻¹⁰ M. hTNFα diluents having various concentrations were mixed with 30 μg of TSK11 antibody and maintained at 37° C. for 2 hours. The mixed solution was distributed to the each well coated with the recombinant hTNFα, and incubated at 37° C. for 2 hours. Then, 100 μl of a horseradish peroxiadase substrate solution (Bio-rad, 172-1064) was added to the each well and kept at 37° C. for 3 minutes to induce color development. The absorbance of the each well was measured at 410 nm with ELISA reader (Dinatec inc., U.S.A.).
Apparent affinity was determined by calculating a reciprocal of the antigen concentration required in inhibiting 50% of the maximum binding in the competitive ELISA according to Scatchard plot analysis (Friguet E. et al., J. of Immunological Method 77: 305-319, 1985).

T1 sequence (P01375 77-233 limits assumed): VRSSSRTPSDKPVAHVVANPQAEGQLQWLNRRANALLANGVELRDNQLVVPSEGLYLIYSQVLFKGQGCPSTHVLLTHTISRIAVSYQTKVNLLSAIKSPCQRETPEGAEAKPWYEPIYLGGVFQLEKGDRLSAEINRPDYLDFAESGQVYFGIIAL

B1: monoclonal antibody produced from the hybridoma cell line TSK11 (antibody, IgG1, V domains shown)
VH: QVQLVQSGPELKKPGETVKISCKASGYTFTHYGMNWVKQAPGEGLKWMGWINTNTGEPRYDEEFKGRFAFSLETSASTAYLQINNLRREDTATYFCARYDSRGFDCWGQGTTLTVSS
VL: QIVLTQSPAIMSASLGERVTMTCTASSSISYNYFHWYQQRPGSSPKLWIYSSSNLASGVPPRISGSGSGTSYSLTISSMEAEDAATYYCHQYERSPWTFGGGTKLEIKR
notes: Mouse hybridoma antibody; also called TSK11 antibody
B1 gave a Kd of 1.95 nM.
